Laboratory results: patent US20130023483A1
Square brackets hold non-standard residues; d marks the D form. Oic = O=C(O)[C@@H]1C[C@@H]2CCCC[C@@H]2N1; 1Nal = N[C@@H](Cc1cccc2ccccc12)C(=O)O; 2Nal = N[C@@H](Cc1ccc2ccccc2c1)C(=O)O; d1Nal = N[C@H](Cc1cccc2ccccc12)C(=O)O; Tic = O=C(O)[C@@H]1Cc2ccccc2CN1; dTic = O=C(O)[C@H]1Cc2ccccc2CN1; dOrn = NCCC[C@@H](N)C(=O)O; Orn = NCCC[C@H](N)C(=O)O; Dab = NCC[C@H](N)C(=O)O; Abu = CC[C@H](N)C(=O)O

target: chemokine receptor CXCR7 (RDC1) (UniProt P25106); experiment: cell-based or functional assay
Sequence (P25106 whole entry): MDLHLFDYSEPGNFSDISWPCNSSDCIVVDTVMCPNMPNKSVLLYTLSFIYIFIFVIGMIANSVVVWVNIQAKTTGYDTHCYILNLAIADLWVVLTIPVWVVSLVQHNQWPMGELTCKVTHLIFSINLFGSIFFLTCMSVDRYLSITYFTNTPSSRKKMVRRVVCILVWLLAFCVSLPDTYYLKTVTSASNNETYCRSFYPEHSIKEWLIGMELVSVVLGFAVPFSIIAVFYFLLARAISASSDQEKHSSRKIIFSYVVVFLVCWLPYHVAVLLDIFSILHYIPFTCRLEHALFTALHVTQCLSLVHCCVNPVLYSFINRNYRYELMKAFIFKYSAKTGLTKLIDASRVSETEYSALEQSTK

β-Arrestin EC50	Substance
63.4 nM	cyclo(W[dI]WR[dP][Tic])
226 nM	cyclo(H[dW]HR[dP][Tic])
47.7 nM	cyclo(-Trp-^DArg-Ile-Arg-^DPro-Azt-) (peptide)
148 nM	cyclo(-Trp-^DThr-Tyr-Arg-^DPro-Azt-) (peptide)
41.2 nM	cyclo(-1Nal-^DArg-Ile-Arg-^DPro-Azt-) (peptide)
280 nM	cyclo([1Nal][dR]WR[dP][Tic])
326 nM	cyclo(W[dF]YR[dP][Tic])
342 nM	cyclo(-Trp-^DHis-Trp-Arg-^DPro-Azt-) (peptide)
170 nM	cyclo(-Trp-^DArg-Trp-Arg-^DPro-Azt-) (peptide)
146 nM	cyclo(-1Nal-^DArg-Trp-Arg-^DPro-Azt-) (peptide)
83.6 nM	cyclo(W[dF]WR[dTic]P)
34.3 nM	cyclo(I[dR]IR[dP][Tic])
1.7 nM	cyclo(-Trp-^DPhe-Trp-Arg-^DPro-(4S)-Hyp(Bn)-) (peptide)
208 nM	cyclo(-Trp-^DArg-Trp-Ile-^DPro-Azt-) (peptide)
22.5 nM	cyclo(F[dF]WR[dP][Tic])
347 nM	cyclo([1Nal][dH]IR[dP][Tic])
204 nM	cyclo(W[dH]WR[dP][Tic])
12.1 nM	cyclo(W[dF]W[Orn][dP][Tic])
234 nM	cyclo(R[dW]HR[dP][Tic])
128 nM	cyclo(W[dR]WR[dP][Tic])
11.5 nM	cyclo(Y[dF]WR[dP][Tic])
0.4 nM	cyclo(-Trp-^DPhe-Trp-Arg-^DPro-Tiq-) (peptide)
148 nM	cyclo(W[dF]IR[dP][Tic])
85.7 nM	cyclo(-1Nal-^DHis-Ile-Arg-^DPro-Azt-) (peptide)
16.5 nM	cyclo(W[dF]WK[dP][Tic])
163 nM	cyclo(A[dF]WR[dP][Tic])

β-Arrestin EC50	Substance
70.8 nM	cyclo(I[dH]WR[dP][Tic])
348 nM	cyclo(W[dR]HR[dP][Tic])
111 nM	cyclo(W[dOrn]WR[dP][Tic])
344 nM	cyclo(-Trp-^DHis-Ile-Arg-^DPro-Azt-) (peptide)
32.1 nM	cyclo(H[dF]WR[dP][Tic])
44.4 nM	cyclo(-1Nal-^DHis-Tyr-Arg-^DPro-Azt-) (peptide)
75.7 nM	cyclo(W[dF]FR[dP][Tic])
32.5 nM	cyclo(-His(Me)-^DPhe-Trp-Arg-^DPro-Tic-) (peptide)
217 nM	cyclo(W[dR]HW[dP][Tic])
317 nM	cyclo(I[dW]HR[dP][Tic])
78.7 nM	cyclo(-Trp-^DPhe-Trp-Arg-^DPip-Pro-) (peptide)
8.9 nM	cyclo([2Nal][dF]WR[dP][Tic])
97.5 nM	cyclo([Abu][dR]RW[dP][Tic])
94.5 nM	cyclo(W[dF]WY[dP][Tic])
18.3 nM	cyclo(W[dF]WH[dP][Tic])
64.9 nM	cyclo(W[dW]WR[dP][Tic])
12.8 nM	cyclo(R[dF]WR[dP][Tic])
144 nM	cyclo(R[dH]WR[dP][Tic])
269 nM	cyclo(H[d1Nal]HW[dP][Tic])
4.8 nM	cyclo(W[dF]WR[dP][Tic])
16.9 nM	cyclo(W[dF][2Nal]R[dP][Tic])
61.6 nM	cyclo([1Nal][dF]WR[dP][Tic])
12.6 nM	cyclo(W[dF]W[Dab][dP][Tic])
178 nM	cyclo(W[dF]RR[dP][Tic])
0.8 nM	cyclo(W[dF]WR[dP][Oic])
